From the supplement of paper PMC9732359
± gives the uncertainty stated by the source.

Test: protein stability index of a GFP-peptide fusion (yeast GPS) (PSI 1-4); higher = more stable; sorted into four equal gates, so the index is relative within each strain
In short: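 Peptides tiling yeast proteins in 17-residue segments were fused downstream of GFP, with Cherry expressed from the same plasmid. As a pooled library in yeast, mid-log cultures grown in leucine-free medium were sorted into four equal gates by GFP/Cherry fluorescence ratio. Gate plasmids were PCR-amplified and Illumina-sequenced, and barcodes linked reads to strains. Each peptide received a protein stability index equal to the sum of each gate's read frequency times its gate number.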

Row | Sequence | protein stability index (doa10∆) | protein stability index (pdr5∆) | protein stability index (san1∆) | protein stability index (ubr1∆)
1 | SASVRALIENWAADSVS [FAS1] | 2.46 ± 0.078 | 2.48 ± 0.094 | 2.59 ± 0.097 | 2.76 ± 0.091
2 | SAVKPRPLKLERGFACI [FAS1] | 2.16 ± 0.092 | 2.36 ± 0.064 | 2.06 ± 0.082 | 2.42 ± 0.071
3 | SDDIISQVDPITLFVLV [FAS2] | 1.19 ± 0.045 | 1.38 ± 0.068 | 1.33 ± 0.17 | 1.23 ± 0.064
4 | SDDYDNEGAASSNPQSA [SMC1] | 2.91 ± 0.16 | 3.42 ± 0.13 | 2.65 ± 0.12 | 3.13 ± 0.051
5 | SDFTFPEYYSTARVMGG [DIS3] | 1.57 ± 0.073 | 1.39 ± 0.084 | – | 1.38 ± 0.13
6 | SDIPVSENVFEGLTYKY [SSN3] | 1.82 ± 0.078 | 1.89 ± 0.1 | – | 1.98 ± 0.042
7 | SDNNSRIMSRNFYLKRF [SWI1] | 2.73 ± 0.066 | 2.67 ± 0.079 | 2.95 ± 0.099 | 3.09 ± 0.063
8 | SDSSSEDEVKVEGPKFT [YLR335W/NUP2] | 3.4 ± 0.12 | 3.47 ± 0.13 | 3.4 ± 0.06 | 3.44 ± 0.16
9 | SDVLFEFTKINTPLVGA [YJL039C/NUP192] | 1.66 ± 0.042 | 1.66 ± 0.045 | 1.45 ± 0.088 | 1.47 ± 0.037
10 | SDVLRFLQRVRVWEYRQ [RPL15A] | 1.34 ± 0.083 | 1.88 ± 0.066 | 1.71 ± 0.083 | 2.01 ± 0.054
11 | SEAKRTKFSNPAIPPVI [BRR2] | 2.13 ± 0.06 | 2.25 ± 0.054 | 2.45 ± 0.067 | 2.44 ± 0.056
12 | SECIVSIKSKVVDHHVE [RRP42] | 3.04 ± 0.066 | 3.08 ± 0.08 | 2.71 ± 0.14 | 3.04 ± 0.067
13 | SEDSAVFKATSSTDEES [FAS1] | 3.03 ± 0.1 | 3.21 ± 0.11 | 2.93 ± 0.073 | 2.98 ± 0.067
14 | SEEEEDEEENGSSDEDL [SSN2] | 3.48 ± 0.26 | 3.74 ± 0.24 | 3.63 ± 0.12 | 3.32 ± 0.17
15 | SEEIDSLNEDVEEIKLQ [SMC2] | 3.19 ± 0.12 | 3.41 ± 0.14 | 2.94 ± 0.097 | 3.25 ± 0.077
16 | SEHFDVNDNPDIEAGDD [DIS3] | 2.81 ± 0.058 | 2.93 ± 0.058 | 2.72 ± 0.076 | 3.08 ± 0.045
17 | SEISSLKGKINNEMKSL [SMC1] | 3.09 ± 0.28 | – | 2.65 ± 0.27 | 3.18 ± 0.18
18 | SELAVATTSVMMVNNQT [SRB6] | 3.12 ± 0.2 | – | – | –
19 | SELFDEWFEQNNSEQDQ [ISW2] | 2.49 ± 0.067 | 2.54 ± 0.071 | 1.44 ± 0.14 | 1.95 ± 0.051
20 | SELPDIYSRDIGAELKR [SNF2] | – | 3.26 ± 0.13 | 3.38 ± 0.08 | 3.41 ± 0.18
21 | SENHTESDAPPKSTAPI [YOR098C/NUP1] | 2.75 ± 0.058 | 2.24 ± 0.054 | 2.51 ± 0.058 | 2.47 ± 0.06
22 | SEPIDLIIIEKKQKLIE [ITC1] | – | – | 2.87 ± 0.18 | 2.69 ± 0.13
23 | SEPIKEIIDNWEKYEQS [FAS1] | 2.88 ± 0.097 | 3.22 ± 0.07 | 3.23 ± 0.048 | 2.96 ± 0.059
24 | SESQLNSTLKKVESQET [YCS4] | 2.62 ± 0.18 | 3.4 ± 0.22 | 3.31 ± 0.1 | 3.04 ± 0.29

Row | Sequence | protein stability index (doa10∆) | protein stability index (pdr5∆) | protein stability index (san1∆) | protein stability index (ubr1∆)
25 | SETDKRQFLHELRRPGV [RPO31] | 1.89 ± 0.056 | 1.73 ± 0.059 | 1.57 ± 0.16 | 1.57 ± 0.069
26 | SETFLQFYVKRWKRFTI [CDC53] | 2.39 ± 0.1 | 2.74 ± 0.063 | 1.73 ± 0.1 | 2.3 ± 0.074
27 | SFEETVEILFEAGASAE [RPO21] | 2.7 ± 0.11 | 2.77 ± 0.09 | 2.89 ± 0.063 | 2.51 ± 0.093
28 | SFGKIYVTKPMVNESDG [RPB2] | 3.12 ± 0.19 | 3.18 ± 0.14 | 3.01 ± 0.2 | 3.26 ± 0.24
29 | SFGSKPTGKEEGDGAKA [YJL041W/NSP1] | 3.59 ± 0.12 | 3.31 ± 0.065 | 3.48 ± 0.11 | 3.21 ± 0.083
30 | SFIFQYYGLVIDLLLLG [PRP8] | 1.48 ± 0.12 | 1.2 ± 0.054 | 1.15 ± 0.16 | 1.24 ± 0.05
31 | SFKYLSNNDEDDKDCTI [RGR1] | 2.51 ± 0.05 | 2.41 ± 0.04 | 2.18 ± 0.055 | 2.62 ± 0.034
32 | SFLFDVLKTLEYKLATY [NUT1] | 2.33 ± 0.062 | 2.18 ± 0.07 | 3 ± 0.097 | 2.03 ± 0.074
33 | SFLFSAIPLQQVLSQSA [SWI1] | 1.58 ± 0.054 | 1.43 ± 0.064 | 1.28 ± 0.091 | 1.39 ± 0.034
34 | SFLSGVKSLLSEEKIRD [SIR4] | 3.01 ± 0.088 | 3.11 ± 0.072 | 2.92 ± 0.063 | 2.92 ± 0.11
35 | SFNMAQIPQQLYQSLTP [SNF5] | 2.16 ± 0.067 | 2.35 ± 0.072 | 2.14 ± 0.054 | 2.12 ± 0.047
36 | SFSFGAPESMKSTASTA [YOR098C/NUP1] | 3.07 ± 0.069 | 3.13 ± 0.091 | 3.31 ± 0.059 | 3.12 ± 0.053
37 | SFVKETKLHSGDYGEEE [SRB8] | 3.61 ± 0.23 | 3.22 ± 0.13 | – | 3.44 ± 0.1
38 | SGAITFVNETPRVIEPV [PRP8] | – | 1.96 ± 0.27 | – | 1.11 ± 0.045
39 | SGDSGVYTLACRSCPYE [RPC11] | 1.28 ± 0.13 | 2.01 ± 0.18 | – | 1.26 ± 0.15
40 | SGKETASAPLCSPKLPV [DLS1] | 2.89 ± 0.049 | 3.13 ± 0.05 | 3.15 ± 0.039 | 3.14 ± 0.034
41 | SGNNNGGFTNLTSQAPQ [YDL088C/ASM4] | 3.24 ± 0.071 | 3.31 ± 0.053 | 3.16 ± 0.054 | 3.29 ± 0.042
42 | SGNNSKKRKNKSSGSSM [ROX3] | 2.65 ± 0.14 | 2.94 ± 0.075 | 2.91 ± 0.12 | 3.17 ± 0.068
43 | SGNNYNDINISSIENNI [MED2] | 3.01 ± 0.039 | 3.02 ± 0.036 | 2.89 ± 0.032 | 3.151 ± 0.031
44 | SGQFYFRNPTPLLSNYA [RGR1] | 1.36 ± 0.059 | 1.54 ± 0.045 | 1.8 ± 0.081 | 1.89 ± 0.044
45 | SGSAGANPAGASQPEPT [YJL041W/NSP1] | 2.9 ± 0.18 | 3.2 ± 0.13 | 2.93 ± 0.1 | 3.15 ± 0.1
46 | SGSLFGSNNAQTSRGLF [YGL172W/NUP49] | 3.03 ± 0.073 | 3.01 ± 0.06 | 2.95 ± 0.047 | 2.84 ± 0.064
47 | SGSQNISEFDSFTDILK [RPN12] | 3.37 ± 0.17 | 3.12 ± 0.09 | 3 ± 0.099 | 3.03 ± 0.066
48 | SGTPITQTESKKEENET [SNF2] | 2.77 ± 0.052 | 2.59 ± 0.045 | 2.94 ± 0.046 | 2.82 ± 0.036
